Assay results reported in a protein production outcome set (Wang et al. 2014).

Experiment: label from the status in PepcDB records

Sequence | protein production
MFARFLAQLDFVLTCDRLKTALRTTRLHDGSRLENSAEHSWHLALLALTLAEYAPTGTDVGRVVRLLLMHDLVEIGAGDLSFDAPAEAQAAQQEAEARAAAELFGLLPTDQAAEFLGLWQEFEARQTTEVRFARALDALQPMLLTWGPGAQGCAASHPELTHLRVLGLKEKHLREFPELWAAAQGVMAQAQARGVLQPLEHHHHHH | failed
MIGPENCNSVSEPIAYVIILAGGRSSRMGYDKAQVMVDGRRLIDLCLESIASVHAHPIVVSGQDLQLTAAVTQVMEEPAFGGPVAGIAAGMRCCDTKAGLIGVIAVDAPRSGNYLNQLRRVVLTHPEVGVAHAVVEGYDQPLLAVWRYEALTQALHALGSPRNVAAKRLLRSATTPVIAVPVDSSARDYDTVAELSALGRVRLRLEHHHHHH | failed
MRLLPRETGDGDRPRVARSARPRAGSAVEGALSAAQRPLRHGAYPRRATSPVARVRMVFLALVATLFALPALAEPKFPPLSGRVVDEAQVLSPDVERDLSDKLAALETRTGHQLVVATVSSLQGYPIEDYGYRLGRTWGIGDKDKDDGAILLVAPNDRQVRIEVGYGLEPVLTDALSSVIIQSAILPKFRDGDLSGGIVAGADAMIEQLGLPPEEAKARVADAARPERHEARGSPIVGFLILLFIIFVFSSLFRGRRGGLGSALPWIILSALNNSGRGGGGWGGGGGGGFSGGGGSFGGGGSSGRW | failed
MIERLRGALASASFPVMALLLLSAIVVYPLWTMLFLGAVFAYIVRPVALRINRRIPYLSVSIILAMIVVIMPLVGILVFTVDSIINSAPSLLSLAGSIHVPGAGNLQPSAENTLANLRTVLRDILSGSLNYVVAILQSVPMISLQLFVFLSSTFYFARDGKRLVGYIRTLIPEETRPFMERMASETERVLLSIFYGHFLTALAIGLMAAVGFHLLGYPYAILLGIMTGLFQLIPVIGPWAAYTPLSIYDFVTGNILRGVLVLIFGLFLSTIDIYLRPKLSGKYADIHPMIFLVGFLGGPVVWGVAGFIVGPLVLGLAYAALEAYRMESGGEEVQ | failed
EDFRPVVFVHGLAGSAGQFESQGMRFAANGYPAEYVKTFEYDTISWALVVETDMLFSGLGSEFGLNISQIIDPETLDKILSKSRERLIDETFSRLDRVIDEALAESGADKVDLVGHSMGTFFLVRYVNSSPERAAKVAHLILLDGVWGVDAPEGIPTLAVFGNPKALPALGLPEEKVVYNATNVYFNNMTHVQLCTSPETFAVMFEFINGYKPATT | not failed
MRLIEQAIEKIESGQVTEGLTALEEAAKTANHEMKYTVAETYYELGHLDKAQAIIDELLMLYPDEGGLYTFAAEILIDLNKEDEAIEMLNEIKEQDPAFLQAQLLLADLYQLQSLDEVAEQKLLKAYEVAPDEPIISFGLGEFYLERGDYIKSIPHLKRAKHGGLTNDQVNVSLKLAEAYSGSGQFEEALPHYDEGLKQKLDPHGLFGYGYTAYLLGDYVLAIEQFQALKALDPDFYDPIPVFGEGFRRGKSFRGSNGCFKRGDDRGLEHHHHHH | not failed
MSLSFLKHVQDCNTHDLSNFVRFVIEGRRVGWVRKALAQRLKAHGRVFDVTRDAVLLSASLRTPQSRTRAVADVVDRLADEGVVPAPRGELYRVNQSWGEPTLMLLDRAVVPTFGVRAYGVHLNGYVGAGADLHLWIGRRSPDKSVAPGKLDNMVAGGQPADLSLRQNLIKECAEEADLPEALARQAIPVGAITYCMESPAGIKPDTLFLYDLALPEDFRPHNTDGEMADFMLWPAAKVVEAVRTTEAFKFNVNLTVIDFAIRHGLIDPDNEPDYQEILAGLRGRPRERAASEGHHHHHH | not failed
MDLNRMGKDEYYVQITVDGKEVHSKADNGQKYKDYEYKLTGFDKDGKEKELEFTAQKNLRKEAFLRVYHSDKKGVSAWEEVKKDELPAKVKEKLGVKLEHHHHHH | not failed
MESITLDIELLQLPETSPMSMKSNQDFVKKLFDQWLALPETNRLVTSLVNDAKAGVALNVMCGGGSSGTNSGSNSPLASMFPARNGPPLSPRNSTGSPRIARQRTGLSNLSSPLKVVSDHVKELIPQFYFEDGRPPPNDLKEQCIAKINSLFYGHEDGLQLQEFKLVTTEICKVPSFFSTSIFKKVDTNNTGFVKREDFIDYWVKGNMLTKEITSQVFTILKQPDHNYLVQDDFKPVLQELLATHPGLEFLQGTPEFQDRYAETVIYRIYYYINRSGNGHLTLRELKRGNLVDAMQHADEEEDINKVLRYFSYEHFYVIYCKFWELDTDHDFLIDKENLIRYSNHALTYRIVDRIFSQVPRKFTSKTEGKMGYEDFVYFILAEEDKSSEPSLEYWFKCIDLDANGVLTRNELQFFYEEQLHRMECMAQEAVLFEDILCQLFDMVKPEDEGFICLNDLKGSKLSGNVFNILFNLNKFMAFETRDPFLIRQERANPTWTEWDRFAHREYIRLSMEEDVEDASNGSAEAWDDSLEVPF | failed
PDGPTQLRALNLTEGFAVLHWKPPQNPVDTYDIQVTAPGAPPLQAETPGSAVDYPLHDLVLHTNYTATVRGLRGPNLTSPASITFTTGLEAPRDLEAKEVTP | not failed
MLKELFVNLTILITFNYLFTHLFKERLVHKKDSISFQAVKGLACGLLGVILMVFGFTYQHSIIDLRNIPIMIAALYGGWVSTATALAMITAGRLLITMNTSALYSVIIICIAAIPSLIVSRRKKVQLKHAFYLLIITNSLISFSFYFLIDLHSYELHLYFWIISIAGGMLSLYIIDHETNAHLLFKQYKFQAHFDFLTGVYNRRKFEETTKALYQQAADTPHFQFALIYMDIDHFKTINDQYGHHEGDQVLKELGLRLKQTIRNTDPAARIGGEEFAVLLPNCSLDKAARIAERIRSTVSDAPIVLTNGDELSVTISLGAAHYPNNTEQPGSLPILADQMLYKAKETGRNRVCFSEKKE | failed
MPKIRIRKFWPSGAGTVPGVLLIALALGCVGHRAKFADETFSSDEAEIRSAVEPLPPKAQLVYLVLAGELAGQRGRYEVALEHYLQAARLSRDGRLAERAMQIALFIKKYPEAVESVALWLKAEPRHAGARRMATLLYLKEGRRDEAVTQMKVLLTLPDADLENTLIELVKVLGNEVPRQDATEFMDALLRAFPAMADLHFAAALLAANQGEFQQALSETEEALKLHPDWGRARVLQAQVMAQMGDSATAGDLIQRALKRDPDNARLRLIYSQFLIKSGDIEGARRELERIVAKEPGNQDARFGLGLALIDLGRLDAARREFAALAASEKWRVQAYFYLGLIDARKGRLNEALDWFDRVTTGPTEFDARVNGITVLISLGRLTEARTRLADIRRRFPNESVRLYLLEAELLSKNRDYEDAFNLLTDALGENPGQSDLLYARALVAENLGRFDVLEADLRQVLEKSPDDPNALNALGYTLVERGERLDEAKGYLDRAIRLKPDDPAILDSYGWLLYRLRKYAEAIEYLRRAYDKVQDPEIASHLGEVLMESGRRQEARKILREAWKKAPEHEDMQRIRARYPELLAP | failed
SLTMDVPPTIHVPLPPTSYPAFDAAIFTDIGGRKHQEDRFTLCPQLVPGRDDCAFFGVFDGTVGDFASENVKDLVVPQLISSPAWQEVTEMLRSDVPATEVDEKLPQLLDQAVDDMYKNADNELVKMCEQLNKDYASSTSVTAVLAKGFVAVGHLGDSRIAMGVETPNGLNCEFLTVDHKPDMPHEKLRIMRNGGSVEYLHNHNNKPFIRGGDFSFRKSRGEQPMQLQYSRAFGGKDLKMYGLSNQPDVRVVRVTPQHRVMILATDGLWDVMSAAQAVEIAMQARQEGRNPAQALVEMTLAEQQSRNQSADNITAMTVFFKKTD | not failed
MEPWKQCAQWLIHCKVLPTNHRVTWDSAQVFDLAQTLRDGVLLCQLLNNLRAHSINLKEINLRPQMSQFLCLKNIRTFLTACCETFGMRKSELFEAFDLFDVRDFGKVIETLSRLSRTPIALATGIRPFPTEESINDEDIYKGLPDLIDETLVEDEEDL | failed
MKLDDLNLFRQVVENGSYTAASRKTLIPVATITRRIQALEDSLDIRLLNRHARKLSLTEAGQKFYDECAPILATLVNTSEYLGEECRGAAGKLKIAAPSNLTKRMIQPILNKFMLLYPDISINLTMSNQPEQLDPTDWDIIFRVGKQRDSSLIARQIGSLEDILVASPSYLEKNSEPTHAQELHKHSLLKGNPLMRWRLTNKDGESVTITDAGRFEASELNVIRMACSNGLGITLMPDIMISQYLEEGSLIRVLSDWSANPRDIYMIYNYKDHQPEKVRLFIDFVSNHIPD | failed
MGAKGKFWILTMVVAISGLSQGVLLPLIAIILEEKGVSAGINGFHATGIYLGVLLVSPFIEAPLHKYGYKPIILVGGGLVAIAIFAFPIWFNLYFWFILRLLIGIGDHMLHFSSQTWIGAMSDPSKRGRNMAIYGLFFSVGFAIGPQLVNLAKVNANLPFFLSGILVLIAWSLVWFIRNDFVGEKAVIRKISFWGSIKRFSGVFKMAWVAMIPPFLYGILETGLNATFPVVGLRDGLDTMMIAMIISSFSVGTIIFQVPIGIISDKFGRDKMLPLLTGAGAVVFVLTAFVKIPIFFVIFFFILGILLGSLYSLGLSYMTDLTPLELLPAGNILVGMFFSLGSIIGPSATGMMIGIFGNQIFYFVVAGILLLGCLLLALGGRKEAH | not failed
MMLYRYTQTKLAQIASELKQTGLWSATAPSVEAMASTAPFACDLMPFEQWLQFIFIPRMQALIDAGQALPSQIAIAPMAEHLWSEQAALAPLISTLNELDILLNEPRLEHHHHHH | not failed
MGHHHHHHENLYFQSHMKFLLAFSLLIPSVVFASSSKFQQVEQDVKAIEVSLSARIGVSVLDTQNGEYWDYNGNQRFPLTSTFKTIACAKLLYDAEQGKVNPNSTVEIKKADLVTYSPVIEKQVGQAITLDDACFATMTTSDNTAANIILSAVGGPKGVTDFLRQIGDKETRLDRIEPDLNEGKLGDLRDTTTPKAIASTLNKFLFGSALSEMNQKKLESWMVNNQVTGNLLRSVLPAGWNIADRSGAGGFGARSITAVVWSEHQAPIIVSIYLAQTQASMEERNDAIVKIGHSIFDVYTSQSR | not failed
MVIFNYILVCIIFGTTFLTIKIGIEAGAPPLFSAGIRFFLAGIILMIIFKLKRKEIMPHIFSKRIMYAGFCLTFMTFASLYWSEQYISSGLAAVLSATGPMMILLIQAKRNREKLQKEQLVALVIALIGVIFVSLPGMHQQVSFIWSIACIVLVIGELFYGIGSIRSKEILSDLSNVSPFLINGIQMFYGGILLLIASIIVEQPNVTVLTSWSVQWPILYLIFIGSIGGHGLYYWLLSKTNPVFPSTWLYVSPLIAIIVGYIILGEPLNPTMGMGACLILIGVFLANRSTLRTYFKKGRLLEKEM | failed
